Results as given in the supplement of paper PMC12667976.

B1: library; numbered along this chain (parent)
chain: MATDAALRRLLRLHRTEIAVAVDSAFPLLHALADHDVVPEDKFQETLHLKEKEGCPQAFHALLSWLLTQDSTAILDFWRVLFKDYNLERYGRLQPILDSFPKDVDLSQPRKGRKPPAVPKALVPPPRLPTKRKASEEARAAAPAALTPRGTASPGSQLKAKPPKKPESSAEQQRLPLGNGIQTMSASVQRAVAMSSGDVPGARGAVEGILIQQVFESGGSKKCIQVGGEFYTPSKFEDSGSGKNKARSSSGPKPLVRAKGAQGAAPGGGEARLGQQGSVPAPLALPSDPQLHQKNEDECAVCRDGGELICCDGCPRAFHLACLSPPLREIPSGTWRCSSCLQATVQEVQPRAEEPRPQEPPVETPLPPGLRSAGEEVRGPPGEPLAGMDTTLVYKHLPAPPSAAPLPGLDSSALHPLLCVGPEGQQNLAPGARCGVCGDGTDVLRCTHCAAAFHWRCHFPAGTSRPGTGLRCRSCSGDVTPAPVEGVLAPSPARLAPGPAKDDTASHEPALHRDDLESLLSEHTFDGILQWAIQSMARPAAPFPS

Variants of: B1
Experiment: AIRE transcriptional activation functional score (insulin promoter-GFP; nonsense median 0, synonymous median 1) (normalised score); higher = higher AIRE activity (more reporter activation)
Details: with insulin promoter-GFP reporter in HEK293
Experimental: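 Deep mutational scan of full-length human AIRE (codon-optimized cDNA, DT-POPCode NNN libraries over three regions) integrated at a Bxb1 landing pad in HEK293 cells carrying an insulin core promoter-GFP reporter at a Flp-In site. Cells were sorted for the top 10% GFP about 14 days after transfection. Variant frequency log-ratios (select vs non-select, TileSeq) were rescaled so that the nonsense median is 0 and the synonymous median is 1, then averaged over biological replicates.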

AIRE transcriptional activation functional score: each site, then its substitutions
Q44: I 0.916 | M -0.749 | G 0.0554 | P -0.185 | L 0.658 | C -0.0407 | D 0.948 | K 1.33 | E -0.441 | T 0.288 | V 0.735 | R 0.783 | A 0.712 | S 0.392 | Y 0.0762 | W 0.23 | F 1.98 | N 0.983 | H -0.545
P56: R 0.352 | W 0.16 | V 0.829 | E -1.9 | H 0.985 | D -0.102 | S 0.484 | K 1.48 | G 0.501 | F 0.968 | Y -0.155 | N 0.0217 | I 0.82 | M -0.903 | T 0.544 | C -0.173 | A 0.549 | Q 0.746 | L -0.0629
T46: C 0.841 | V -0.0333 | K -3.42 | A 0.0907 | I 0.403 | R 0.389 | L -0.561 | E 1.4 | F -1.2 | G -0.878 | N -0.328 | S 0.455 | H 0.478 | M 2.55 | Y 0.503 | D -0.445
L49: W -0.0359 | H -0.538 | I -0.275 | N -0.822 | Q -0.302 | D -0.689 | R 1.04 | V 0.492 | S -0.858 | F 0.262 | C -0.191 | M 0.566 | Y 0.268 | A 0.327 | T -0.364 | G -0.0766 | P -0.173
A58: C -0.141 | S -0.0331 | I -0.388 | H -0.263 | M -0.0857 | T 0.166 | P -0.271 | D 0.158 | N -1.13 | L 0.0439 | E -0.0545 | W 0.0998 | G -0.107 | Q -0.509 | F 0.0934 | V 0.221 | K -1.14 | Y -0.204 | R 0.31
E40: F -0.259 | S 0.167 | T -0.598 | L 0.272 | H -0.15 | V 0.0752 | N -0.324 | K -0.28 | P 0.61 | G -0.121 | I 0.121 | W -0.133 | Y -0.301 | R -0.956 | Q 0.577
C55: D 0.495 | V 0.628 | T 1.49 | P 0.602 | S -0.196 | F 0.897 | I 1.19 | Y 0.622 | R 0.308 | N -0.172 | H 0.145 | A -0.603 | W -0.244 | G -0.175 | Q -0.411 | L -0.0993
E45: M -1.43 | Y -0.129 | L 0.233 | K 0.348 | T -0.232 | G 0.0251 | I -1.78 | S -0.772 | A -0.429 | C -2.39 | F 0.576 | H -0.452 | D 0.278 | Q 1.17 | R -0.0981 | W 1.17 | V 0.134
F59: G 0.194 | C -0.268 | M 0.656 | H 0.308 | K 0.387 | L 0.0546 | E 0.561 | D 0.139 | A 0.101 | I 0.997
D41: C 1.39 | A 1.59 | G 0.147 | H -1.75 | L 0.547 | N 1.79 | K -1.32 | P 0.148 | W 0.551 | Y 1.79 | S 0.72 | I -1.3 | E 1.17 | V 0.0716 | F 0.468 | R 0.0782 | T 0.827
E51: W -0.495 | T -0.0714 | F -0.754 | Q 0.593 | D 0.852 | Y -0.775 | L 0.248 | V 0.0642 | P -0.179 | R 0.215 | S -0.885 | G 0.279 | N -2.61 | M -1.54 | K 0.391 | H 0.0447 | A 0.128 | C -0.0446 | I -1.54
E53: R -0.133 | W 1.2 | T 1.37 | N 0.151 | L 1.14 | Q 0.948 | K 1.55 | A 1.12 | M 0.544 | D 0.593 | H 0.435 | I 1.49 | V 1.36 | Y -0.0622 | S 0.701 | F 0.611 | P -0.371 | G -0.0905 | C 1.45
K50: I 0.717 | R 0.745 | P -0.341 | M 0.465 | C 0.454 | V 0.73 | W 0.149 | L 0.404 | F -0.139 | N 1.59 | D 1.78 | G 1.42 | A -0.833 | S 2.07 | T 0.51 | E 0.64 | Y -0.654 | H 0.46
Q57: T 0.369 | H -0.168 | E 0.685 | K 1.12 | I 0.761 | C -0.141 | A 1.25 | Y 0.535 | N -0.0973 | R 0.643 | S 0.217 | M -0.643 | W -0.29 | L 1.41 | F 0.269 | P -0.527 | V 0.739 | G -0.774
L47: F 0.568 | S 0.462 | G 0.313 | R -0.624 | C -0.421 | W -0.717 | V 0.302 | K -1.23 | A 0.636 | T -0.713 | I -0.62
K52: W -0.861 | G 0.435 | I 0.794 | F 0.16 | V 1.38 | L 1.11 | R 0.664 | D 0.601 | E 0.994 | S 0.883 | M 2.46 | A 1.01 | N -0.178 | P -0.13 | T 1.21 | C -0.346 | H -0.455 | Q -0.353 | Y 0.198
H48: Y 1.23 | S -0.318 | Q 1.5 | C 0.651 | V 1.53 | L 0.44 | T 0.372 | N 0.738 | G 0.181 | P -0.897 | R 1.64
G54: A -0.977 | F -0.19 | Q -0.474 | D 0.773 | P -0.123 | H 0.133 | L -0.0223 | N -1.62 | R -0.991 | I 0.416 | E 0.772 | C 0.165 | S -0.808 | M 0.663 | W 0.0658 | T -1.14 | V 0.385 | Y 0.671
K42: P -0.0735 | L 0.0963 | E -0.598 | Y -0.464 | Q 0.53 | M 0.538 | S 0.172 | F 0.0107 | G -0.403 | T -0.0654 | D -1.69 | H 0.0173 | V 0.822 | I 0.472 | A -0.323 | W -0.0922 | R -0.281 | N 0.98 | C -0.000636
F43: T -0.219 | P 0.556 | C 0.163 | G 0.413 | A -0.325 | V 0.36 | E -1.08 | D -0.408 | H -1.42 | M 0.757 | S 0.0986 | Y 0.108 | W 0.0722 | R 0.134 | Q -0.593 | L 0.0431 | I -0.197
